# Experimental data from ChEMBL document CHEMBL1155741, “Ellagitannins and hexahydroxydiphenoyl esters as inhibitors of vertebrate squalene epoxidase” (J Nat Prod, 2001).
# B1: Squalene monooxygenase (Rattus norvegicus), P52020 (protein)
# chain: MWTFLGIATFTYFYKKCGDVTLANKELLLCVLVFLSLGLVLSYRCRHRNGGLLGRHQSGSQFAAFSDILSALPLIGFFWAKSPPESEKKEQLESKRRRKEVNLSETTLTGAATSVSTSSVTDPEVIIIGSGVLGSALATVLSRDGRTVTVIERDLKEPDRILGECLQPGGYRVLRELGLGDTVESLNAHHIHGYVIHDCESRSEVQIPYPVSENNQVQSGVAFHHGKFIMSLRKAAMAEPNVKFIEGVVLRLLEEDDAVIGVQYKDKETGDTKELHAPLTVVADGLFSKFRKNLISNKVSVSSHFVGFIMKDAPQFKANFAELVLVDPSPVLIYQISPSETRVLVDIRGELPRNLREYMTEQIYPQIPDHLKESFLEACQNARLRTMPASFLPPSSVNKRGVLLLGDAYNLRHPLTGGGMTVALKDIKIWRQLLKDIPDLYDDAAIFQAKKSFFWSRKRSHSFVVNVLAQALYELFSATDDSLRQLRKACFLYFKLGGECLTGPVGLLSILSPDPLLLIRHFFSVAVYATYFCFKSEPWATKPRALFSSGAILYKACSIIFPLIYSEMKYLVH
# Substrate: CC(C)=CCC/C(C)=C/CC/C(C)=C/CC/C=C(\C)CC/C=C(\C)CCC=C(C)C
# Experiment: Activity of C-terminal hexahistidine-tagged rat recombinant squalene epoxidase without N-terminal putative membrane domain expressed in Escherichia coli
protein,measurement,value
B1,Km,3.8 µM
same,kcat,0.0683 s⁻¹
